Test results published in article PMC2766095.

Key:
[1] = target: IL-33/ST2 complex (human) (UniProt Q01638); assay: ITC
[2] = target: ST2-Fc fusion protein (R&D Systems) (UniProt Q01638); assay: SPR
[3] = target: ST2 extracellular domain (ectodomain) (human) (UniProt Q01638); assay: ITC

IL-1 receptor accessory protein (IL-1RAcP) extracellular domain (from UniProt Q9NPH3 21-367)
Kd [1]: 76 nM
dH [1]: -11 kcal/mol
stoichiometry N [1]: 1

IL-33 E34K (ligand)
Kd [2]: 3.11 nM

human IL-33 (interleukin-33), recombinant mature IL-1-like form (ligand)
stoichiometry N [3]: 1
